Source: paper doi:10.1101/2022.08.17.504273 (bioRxiv, 2022)
Each block holds one binder with its values, some of them ahead of it.

B4: GST-CC1B (GST-Psc-DCTN1(residues 350-547)-GFP-6xHis) (domain or fragment)
chain: GSDGAASSYQLKQLEEQNARLKDALVRMRDLSSSEKQEHVKLQKLMEKKNQELEVVRQQRERLQEELSQAESTIDELKEQVDAALGAEEMVEMLTDRNLNLEEKVRELRETVGDLEAMNEMNDELQENARETELELREQLDMAGARVREAQKRVEAAQETVADYQQTIKKYRQLTAHLQDVNRELTNQQEASVERQQQ
B5: LIS1 (full length human) (natural protein)
chain: MVLSQRQRDELNRAIADYLRSNGYEEAYSVFKKEAELDVNEELDKKYAGLLEKKWTSVIRLQKKVMELESKLNEAKEEFTSGGPLGQKRDPKEWIPRPPEKYALSGHRSPVTRVIFHPVFSVMVSASEDATIKVWDYETGDFERTLKGHTDSVQDISFDHSGKLLASCSADMTIKLWDFQGFECIRTMHGHDHNVSSVAIMPNGDHIVSASRDKTIKMWEVQTGYCVKTFTGHREWVRMVRPNQDGTLIASCSNDQTVRVWVVATKECKAELREHEHVVECISWAPESSYSSISEATGSETKKSGKPGPFLLSGSRDKTIKMWDVSTGMCLMTLVGHDNWVRGVLFHSGGKFILSCADDKTLRVWDYKNKRCMKTLNAHEHFVTSLDFHKTAPYVVTGSVDQTVKVWECR
B7: JIP3^1–560 (domain or fragment)
chain: MMEIQMDEGGGVVVYQDDYCSGSVMSERVSGLAGSIYREFERLIHCYDEEVVKELMPLVVNVLENLDSVLSENQEHEVELELLREDNEQLLTQYEREKALRRQAEEKFIEFEDALEQEKKELQIQVEHYEFQTRQLELKAKNYADQISRLEERESEMKKEYNALHQRHTEMIQTYVEHIERSKMQQVGGNSQTESSLPGRRKERPTSLNVFPLADGTVRAQIGGKLVPAGDHWHLSDLGQLQSSSSYQCPQDEMSESGQSSAAATPSTTGTKSNTPTSSVPSAAVTPLNESLQPLGDYGVGSKNSKRAREKRDSRNMEVQVTQEMRNVSIGMGSSDEWSDVQDIIDSTPELDMCPETRLDRTGSSPTQGIVNKAFGINTDSLYHELSTAGSEVIGDVDEGADLLGEFSVRDDFFGMGKEVGNLLLENSQLLETKNALNVVKNDLIAKVDQLSGEQEVLRGELEAAKQAKVKLENRIKELEEELKRVKSEAIIARREPKEEAEDVSSYLCTESDKIPMAQRRRFTRVEMARVLMERNQYKERLMELQEAVRWTEMIRASRE
B8: dynein light intermediate chain (natural protein)
chain: MAPVGVEKKLLLGPNGPAVAAAGDLTSEEEEGQSLWSSILSEVSTRARSKLPSGKNILVFGEDGSGKTTLMTKLQGAEHGKKGRGLEYLYLSVHDEDRDDHTRCNVWILDGDLYHKGLLKFAVSAESLPETLVIFVADMSRPWTVMESLQKWASVLREHIDKMKIPPEKMRELERKFVKDFQDYMEPEEGCQGSPQRRGPLTSGSDEENVALPLGDNVLTHNLGIPVLVVCTKCDAVSVLEKEHDYRDEHLDFIQSHLRRFCLQYGAALIYTSVKEEKNLDLLYKYIVHKTYGFHFTTPALVVEKDAVFIPAGWDNEKKIAILHENFTTVKPEDAYEDFIVKPPVRKLVHDKELAAEDEQVFLMKQQSLLAKQPATPTRASESPARGPSGSPRTQGRGGPASVPSSSPGTSVKKPDPNIKNNAASEGVLASFFNSLLSKKTGSPGSPGAGGVQSTAKKSGQKTVLSNVQEELDRMTRKPDSMVTNSSTENEA

Experiments:
[1] = biological target: T1, JIP3 RH1 domain (JIP3 1-108) (mouse, UniProt Q9ESN9-5 1-108); experiment: pull-down
T1 sequence: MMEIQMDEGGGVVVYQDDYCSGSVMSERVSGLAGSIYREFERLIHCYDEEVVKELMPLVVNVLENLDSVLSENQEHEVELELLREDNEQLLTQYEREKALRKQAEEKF

[2] = biological target: T2, mouse JIP3^185–505 (JIP3 186-505) (mouse, UniProt Q9ESN9-5 186-505); experiment: pull-down
T2 sequence: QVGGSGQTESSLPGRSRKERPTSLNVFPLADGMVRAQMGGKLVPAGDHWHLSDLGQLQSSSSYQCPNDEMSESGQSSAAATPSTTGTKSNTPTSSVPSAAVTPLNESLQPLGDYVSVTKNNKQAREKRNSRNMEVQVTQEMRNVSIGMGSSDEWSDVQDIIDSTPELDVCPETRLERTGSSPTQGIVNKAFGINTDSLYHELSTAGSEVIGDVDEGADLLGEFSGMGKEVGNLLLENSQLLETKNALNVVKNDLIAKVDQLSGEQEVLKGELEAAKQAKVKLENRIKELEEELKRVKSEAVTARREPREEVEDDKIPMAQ

[3] = biological target: T3, mouse JIP3 186-505_L383A/E386A (mouse, UniProt Q9ESN9-5 186-505, L383A | E386A); experiment: pull-down
T3 sequence: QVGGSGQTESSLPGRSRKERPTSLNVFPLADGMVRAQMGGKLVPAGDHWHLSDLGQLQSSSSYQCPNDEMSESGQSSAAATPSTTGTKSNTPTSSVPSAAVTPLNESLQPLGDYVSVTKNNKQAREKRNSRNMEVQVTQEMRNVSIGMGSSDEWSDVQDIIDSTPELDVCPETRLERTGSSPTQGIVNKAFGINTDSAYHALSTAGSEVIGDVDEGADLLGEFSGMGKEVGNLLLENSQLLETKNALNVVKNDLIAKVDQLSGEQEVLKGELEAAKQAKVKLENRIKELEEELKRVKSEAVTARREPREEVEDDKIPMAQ

SEC-MALS = biological target: the molecule itself; experiment: SEC-MALS
LIS1 (full length human) = biological target: B5; experiment: pull-down
cryo-EM structure = biological target: the molecule itself; experiment: cryo-EM structure
[4] = biological target: B4; experiment: pull-down
[5] = biological target: dynactin pointed end complex (ZZ-TEV-Arp11, p62, p25, p27) (human, UniProt Q9NZ32;Q9UJW0-1;Q9BTE1;O00399); experiment: SEC
Sequence of dynactin pointed end complex (ZZ-TEV-Arp11, p62, p25, p27) (Q9NZ32 whole entry, chain 1 of 4): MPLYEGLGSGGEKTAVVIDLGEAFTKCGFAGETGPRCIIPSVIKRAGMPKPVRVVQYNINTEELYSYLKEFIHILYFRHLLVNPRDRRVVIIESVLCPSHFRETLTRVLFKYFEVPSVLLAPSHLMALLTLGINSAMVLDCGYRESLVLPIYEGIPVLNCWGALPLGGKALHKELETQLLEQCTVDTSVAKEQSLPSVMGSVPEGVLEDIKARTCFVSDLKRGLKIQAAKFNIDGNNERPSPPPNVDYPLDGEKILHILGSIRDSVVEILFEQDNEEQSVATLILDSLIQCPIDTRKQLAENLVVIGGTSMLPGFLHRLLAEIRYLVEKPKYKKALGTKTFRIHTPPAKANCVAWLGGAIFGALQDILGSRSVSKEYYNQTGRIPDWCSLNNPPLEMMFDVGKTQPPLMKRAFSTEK
Sequence of dynactin pointed end complex (ZZ-TEV-Arp11, p62, p25, p27) (Q9UJW0 whole entry, chain 2 of 4): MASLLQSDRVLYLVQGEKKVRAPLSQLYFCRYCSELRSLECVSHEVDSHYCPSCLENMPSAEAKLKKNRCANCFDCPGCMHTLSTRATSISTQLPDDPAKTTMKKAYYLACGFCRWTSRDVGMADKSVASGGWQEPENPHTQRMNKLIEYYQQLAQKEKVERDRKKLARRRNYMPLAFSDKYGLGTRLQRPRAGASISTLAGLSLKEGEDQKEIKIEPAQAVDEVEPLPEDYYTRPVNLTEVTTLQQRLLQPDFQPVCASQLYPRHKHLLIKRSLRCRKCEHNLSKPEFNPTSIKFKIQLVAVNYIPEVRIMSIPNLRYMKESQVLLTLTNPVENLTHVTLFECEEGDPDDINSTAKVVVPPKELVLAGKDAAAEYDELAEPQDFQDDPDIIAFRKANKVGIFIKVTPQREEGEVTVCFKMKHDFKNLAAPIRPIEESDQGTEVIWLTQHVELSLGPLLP
Sequence of dynactin pointed end complex (ZZ-TEV-Arp11, p62, p25, p27) (Q9BTE1 whole entry, chain 3 of 4): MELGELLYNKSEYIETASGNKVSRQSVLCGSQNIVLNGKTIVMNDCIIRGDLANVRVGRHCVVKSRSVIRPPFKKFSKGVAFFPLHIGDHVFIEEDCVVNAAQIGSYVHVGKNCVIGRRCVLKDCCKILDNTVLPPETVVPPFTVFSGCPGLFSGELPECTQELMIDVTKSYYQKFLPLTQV
Sequence of dynactin pointed end complex (ZZ-TEV-Arp11, p62, p25, p27) (O00399 whole entry, chain 4 of 4): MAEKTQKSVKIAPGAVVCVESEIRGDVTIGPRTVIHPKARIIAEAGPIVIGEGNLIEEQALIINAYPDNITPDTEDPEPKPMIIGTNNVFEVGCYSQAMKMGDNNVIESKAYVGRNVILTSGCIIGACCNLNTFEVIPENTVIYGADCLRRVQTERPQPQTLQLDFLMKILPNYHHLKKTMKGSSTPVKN

JIP3^1–560 = biological target: B7; experiment: cryo-EM structure
[6] = biological target: GST-CC1A/B (GST-Psc-DCTN1(residues 214-547)-GFP-6xHis) (human (by the printed UniProt entry), UniProt Q14203-1 214-547); experiment: pull-down
[7] = biological target: B8; experiment: cryo-EM structure

binding result [1]: binds
B1: GST-JIP3^563–585 (JIP3^helix construct) (domain or fragment)
chain: SVQEKKKSTIWQFFSRLFSSSSS

binding result [2]: binds
binding result [3]: binds
B2: human Arf6 (12-175_Q67L) (domain or fragment)
chain: KEMRILMLGLDAAGKTTILYKLKLGQSVTTIPTVGFNVETVTYKNVKFNVWDVGGLDKIRPLWRHYYTGTQGLIFVVDCADRDRIDEARQELHRIINDREMRDAIILIFANKQDLPDAMKPHEIQEKLGLTRIRDRNWYVQPSCATSGDGLYEGLTWLTSNYKS

B3: GCN4-WD40-SNAP (other)
chain: GSGSVKQLEDKVEELLSKNAHLENEVARLKKLVSGGPLGQKRDPKEWIPRPPEKYALSGHRSPVTRVIFHPVFSVMVSASEDATIKVWDYETGDFERTLKGHTDSVQDISFDHSGKLLASCSADMTIKLWDFQGFECIRTMHGHDHNVSSVAIMPNGDHIVSASRDKTIKMWEVQTGYCVKTFTGHREWVRMVRPNQDGTLIASCSNDQTVRVWVVATKECKAELREHEHVVECISWAPESSYSSISEATGSETKKSGKPGPFLLSGSRDKTIKMWDVSTGMCLMTLVGHDNWVRGVLFHSGGKFILSCADDKTLRVWDYKNKRCMKTLNAHEHFVTSLDFHKTAPYVVTGSVDQTVKVWECR
stoichiometry N (SEC-MALS): 2

Binder: B4
binding result (LIS1 (full length human)): binds

Binder: B5
binding result (cryo-EM structure): binds

binding result [4]: binds
B6: LIS1-N (residues 1-90) (domain or fragment)
chain: MVLSQRQRDELNRAIADYLRSNGYEEAYSVFKKEAELDVNEELDKKYAGLLEKKWTSVIRLQKKVMELESKLNEAKEEFTSGGPLGQKRD

Binder: B7
binding result [5]: binds

Binder: B8
binding result (JIP3^1–560): binds

binding result [6]: binds
binding result [4]: binds
B9: MBP-DIC-N (dynein intermediate chain 1-76) (domain or fragment)
chain: MSDKSELKAELERKKQRLAQIREEKKRKEEERKKKETDQKKEAVAPVQEESDLEKKRREAEALLQSMGLTPESPIV

B10: LIS1^mut (natural protein)
chain: MVASQEARDELNRAIADYLRSNGYEEAYSVFKKEAELDVNEELDKEYAGLLEEEWAAVAELAEEVMELRSKLNEAKEEFTSGGPLGQKRDPKEWIPRPPEKYALSGHRSPVTRVIFHPVFSVMVSASEDATIKVWDYETGDFERTLKGHTDSVQDISFDHSGKLLASCSADMTIKLWDFQGFECIRTMHGHDHNVSSVAIMPNGDHIVSASRDKTIKMWEVQTGYCVKTFTGHREWVRMVRPNQDGTLIASCSNDQTVRVWVVATKECKAELREHEHVVECISWAPESSYSSISEATGSETKKSGKPGPFLLSGSRDKTIKMWDVSTGMCLMTLVGHDNWVRGVLFHSGGKFILSCADDKTLRVWDYKNKRCMKTLNAHEHFVTSLDFHKTAPYVVTGSVDQTVKVWECR
stoichiometry N (SEC-MALS): 2

binding result [7]: binds
B11: JIP3^1–185 (domain or fragment)
chain: MMEIQMDEGGGVVVYQDDYCSGSVMSERVSGLAGSIYREFERLIHCYDEEVVKELMPLVVNVLENLDSVLSENQEHEVELELLREDNEQLLTQYEREKALRKQAEEKFIEFEDALEQEKKELQIQVEHYEFQTRQLELKAKNYADQISRLEERESEMKKEYNALHQRHTEMIQTYVEHIERSKMQ
